Results taken from publication PMC3859839.
Like-named read-outs stand apart in the source and are kept apart here.

Columns and labels:
Assay in all cases: fluorescence anisotropy
PsaR wild-type [1] = biological target: T1, PsaR wild-type (Streptococcus pneumoniae D39, UniProt A0A0H2ZQ59 1-216)
PsaR wild-type [2] = biological target: T1, PsaR wild-type; remark: listed apart in the source
PsaR D7A = PsaR D7A (Streptococcus pneumoniae D39, UniProt A0A0H2ZQ59 1-216, D7A)
PsaR E99A = PsaR E99A (Streptococcus pneumoniae D39, UniProt A0A0H2ZQ59 1-216, E99A)
PsaR H76F = PsaR H76F (Streptococcus pneumoniae D39, UniProt A0A0H2ZQ59 1-216, H76F)
PsaR wild-type [3] = biological target: T1, PsaR wild-type; remark: listed apart in the source
PsaR H76A = PsaR H76A (Streptococcus pneumoniae D39, UniProt A0A0H2ZQ59 1-216, H76A)
PsaR H125A = PsaR H125A (Streptococcus pneumoniae D39, UniProt A0A0H2ZQ59 1-216, H125A)
PsaR D160A = PsaR D160A (Streptococcus pneumoniae D39, UniProt A0A0H2ZQ59 1-216, D160A)

B1: PsaO (psaBCA operator) (dsDNA)
DNA 1: TTCAAAAATTAACTTGACTTAATTTTTTTT
DNA 2: AAAAAAAATTAAGTCAAGTTAATTTTTGAA
Q: Which Ka (PsaR wild-type [1]) does the source give for B1 here?
A: The Ka was 8.02 ± 0.03 log10 M-1.

Q: What about the Ka (PsaR wild-type [2]) of the same binder?
A: The Ka was 10.1 ± 0.1 log10 M-1.

Q: What about the Ka (PsaR D7A) of the same binder?
A: Its Ka is 7.22 ± 0.03 log10 M-1.

Q: What about the Ka (PsaR E99A) of the same binder?
A: Its Ka is 9.27 ± 0.05 log10 M-1.

Q: And the Ka (PsaR H76F)?
A: The Ka was 8.54 ± 0.06 log10 M-1.

Q: What about the Ka (PsaR wild-type [3]) of the same binder?
A: The Ka was 10.6 ± 0.1 log10 M-1.

Q: And the Ka (PsaR H76A)?
A: The Ka was 9.6 ± 0.1 log10 M-1.

Q: And the Ka (PsaR H125A)?
A: Its Ka is 10.4 ± 0.1 log10 M-1.

Q: And the Ka (PsaR D160A)?
A: The Ka was 9.8 ± 0.1 log10 M-1.
